Laboratory results from publication PMC5473807, “Distribution and kinetics of the Kv1.3-blocking peptide HsTX1[R14A] in experimental rats” (Scientific Reports, 2017).
Where two headings read alike, the source gives them in different places.

Assay: In vivo biodistribution by organ and tissue extraction
Design: species or system male Wistar rats
Conditions: for tissue uptake dose at 4 h / SUV at 24 h / tissue uptake dose at 24 h / SUV at 48 h / tissue uptake dose at 48 h / SUV at 1 h / tissue uptake dose at 1 h / SUV at 4 h / tissue uptake dose at 5 min / SUV at 5 min / tissue uptake dose: male, Wistar, total radioactivity; for tissue uptake dose at 4 h / SUV at 4 h: 240 min p.i.; for tissue uptake dose at 4 h / SUV at 24 h / tissue uptake dose at 24 h / SUV at 48 h / tissue uptake dose at 48 h / SUV at 1 h / tissue uptake dose at 1 h / SUV at 4 h / tissue uptake dose at 5 min / SUV at 5 min: mean ± SD; for SUV at 24 h / tissue uptake dose at 24 h: 1440 min p.i.; for SUV at 48 h / tissue uptake dose at 48 h: 2880 min p.i.; for SUV at 1 h / tissue uptake dose at 1 h: 60 min p.i.; for tissue uptake dose at 5 min / SUV at 5 min: 5 min p.i.; for tissue uptake dose: whole body, end of observation (Fig. 7c), time not given, mean ± SEM, read-out: remaining activity in the body; for AUC Kidney / AUC Liver: calculated between 1 and 48 h; for t1/2 Blood / t1/2 Kidney / t1/2 Liver: calculated from 24 to 48 h
Experimental: The present study includes data obtained from a total of 50 animals. Four animals (body weight 227 ± 10 g) for each time point were injected intravenously into a tail vein or subcutaneously with approximately 0.3 MBq ([…]) [^64Cu]Cu-NOTA-HsTX1[R14A] conjugate in 0.5 mL electrolyte solution E-153 (Serumwerk Bernburg, Germany). Animals were euthanised at 5, 60, 240, 1440 and 2880 min post-injection. Blood and the major organs were collected, weighed, and counted in a cross-calibrated γ-counter (Isomed 1000, Isomed GmbH, Dresden) and Wallac WIZARD Automatic Gamma Counter (PerkinElmer, Germany). The radioactivity of the tissue samples was decay-corrected and calibrated by comparing the counts in tissue with the counts in aliquots of the injected radiotracer that had been measured in the γ-counter at the same time. The activity in the selected organs was expressed as percent-injected dose per organ (% ID) and the activity concentration in tissues and organs as standardised uptake value (SUV). Values are quoted as mean ± standard error of mean (SEM) for each group of four animals.

[1] = testes, iv, 0.3 MBq, rat, i.v., n=4, read-out: Testes activity amount
[2] = testes, sc, 0.3 MBq, rat, s.c., n=4, read-out: Testes SUV
[3] = testes, sc, 0.3 MBq, rat, s.c., n=4, read-out: Testes activity amount
[4] = thymus, iv, 0.3 MBq, rat, i.v., n=4, read-out: Thymus activity amount
[5] = thymus, iv, 0.3 MBq, rat, i.v., n=8, read-out: Thymus activity amount
[6] = thymus, iv, rat, i.v., n=4, read-out: Thymus SUV
[7] = thymus, iv, rat, i.v., n=8, read-out: Thymus SUV
[8] = thymus, sc, 0.3 MBq, rat, s.c., n=4, read-out: Thymus activity amount
[9] = thymus, sc, rat, s.c., n=4, read-out: Thymus SUV
[10] = thyroid, iv, 0.3 MBq, rat, i.v., n=4, read-out: Thyroid activity amount
[11] = thyroid, iv, 0.3 MBq, rat, i.v., n=8, read-out: Thyroid activity amount
[12] = thyroid, sc, 0.3 MBq, rat, s.c., n=4, read-out: Thyroid activity amount
[13] = white adipose tissue, iv, 0.3 MBq, rat, i.v., n=4, read-out: WAT (white adipose tissue) SUV
[14] = white adipose tissue, iv, 0.3 MBq, rat, i.v., n=8, read-out: WAT (white adipose tissue) SUV
[15] = white adipose tissue, sc, 0.3 MBq, rat, s.c., n=4, read-out: WAT (white adipose tissue) SUV
[16] = whole blood, iv, 0.3 MBq, rat, i.v., n=4, read-out: Blood SUV

SMILES: CSCC[C@@H]1NC(=O)[C@@H]2CSSC[C@H](NC(=O)[C@H](CO)NC(=O)[C@H](C)NC(=O)COCCOCCNC(=O)CN3CCN(CC(=O)O)CCN(CC(=O)O)CC3)C(=O)N[C@@H](CCCNC(=N)N)C(=O)N[C@@H]([C@@H](C)O)C(=O)N3CCC[C@H]3C(=O)N[C@@H](CCCCN)C(=O)N[C@@H](CC(=O)O)C(=O)N[C@H]3CSSC[C@H](NC(=O)[C@H](CCCCN)NC(=O)[C@H](CCCNC(=N)N)NC(=O)[C@H](CC(N)=O)NC1=O)C(=O)N[C@@H](CCCCN)C(=O)N[C@H]1CSSC[C@H](NC(=O)[C@@H]4CCCN4C(=O)[C@H](CC(=O)O)NC(=O)[C@H](C)NC3=O)C(=O)N[C@@H](C)C(=O)N[C@@H](CCCCN)C(=O)N[C@@H](CCC(=O)O)C(=O)N[C@@H]([C@@H](C)O)C(=O)NCC(=O)N[C@@H](CSSC[C@@H](C(N)=O)NC(=O)[C@H](CCCNC(=N)N)NC(=O)[C@H](CC(N)=O)NC1=O)C(=O)N1CCC[C@H]1C(=O)N[C@@H](Cc1ccc(O)cc1)C(=O)NCC(=O)N[C@@H](CCCCN)C(=O)N2 [[^64Cu]Cu-NOTA-HsTX1[R14A], metal not drawn]
- tissue uptake dose at 4 h [1]: 0.21 ± 0.01 %ID
- SUV at 24 h (testes, iv, 0.3 MBq, rat, i.v., n=8, read-out: Testes SUV): 0.87 ± 0.34 SUV
- tissue uptake dose at 24 h (testes, iv, 0.3 MBq, rat, i.v., n=8, read-out: Testes activity amount): 1.05 ± 0.13 %ID
- SUV at 48 h (testes, iv, 0.3 MBq, rat, i.v., n=4, read-out: Testes SUV): 0.5 ± 0.02 SUV
- tissue uptake dose at 48 h [1]: 0.76 ± 0.02 %ID
- SUV at 1 h [2]: 0.15 ± 0.01 SUV
- tissue uptake dose at 1 h [3]: 0.21 ± 0.01 %ID
- SUV at 4 h [2]: 0.12 ± 0.01 SUV
- tissue uptake dose at 4 h [3]: 0.2 ± 0.03 %ID
- SUV at 24 h [2]: 0.54 ± 0.02 SUV
- tissue uptake dose at 24 h [3]: 0.92 ± 0.06 %ID
- SUV at 48 h [2]: 0.44 ± 0.01 SUV
- tissue uptake dose at 48 h [3]: 0.63 ± 0.06 %ID
- tissue uptake dose at 5 min [4]: 0.37 ± 0.07 %ID
- tissue uptake dose at 1 h [5]: 0.37 ± 0.08 %ID
- tissue uptake dose at 4 h [4]: 0.37 ± 0.04 %ID
- tissue uptake dose at 24 h [5]: 0.21 ± 0.03 %ID
- tissue uptake dose at 48 h [4]: 0.17 ± 0.02 %ID
- SUV at 5 min [6]: 1.51 ± 0.08 SUV
- SUV at 1 h [7]: 1.33 ± 0.19 SUV
- SUV at 4 h [6]: 1.07 ± 0.02 SUV
- SUV at 24 h [7]: 0.74 ± 0.15 SUV
- SUV at 48 h [6]: 0.53 ± 0.02 SUV
- tissue uptake dose at 1 h [8]: 0.46 ± 0.01 %ID
- tissue uptake dose at 4 h [8]: 0.43 ± 0.04 %ID
- tissue uptake dose at 24 h [8]: 0.22 ± 0.01 %ID
- tissue uptake dose at 48 h [8]: 0.16 ± 0.02 %ID
- SUV at 1 h [9]: 1.15 ± 0.03 SUV
- SUV at 4 h [9]: 1.07 ± 0.11 SUV
- SUV at 24 h [9]: 0.63 ± 0.05 SUV
- SUV at 48 h [9]: 0.46 ± 0.05 SUV
- tissue uptake dose at 5 min [10]: 0.07 %ID
- tissue uptake dose at 1 h [11]: 0.11 ± 0.02 %ID
- tissue uptake dose at 4 h [10]: 0.12 ± 0.01 %ID
- tissue uptake dose at 24 h [11]: 0.08 ± 0.01 %ID
- tissue uptake dose at 48 h [10]: 0.07 ± 0.02 %ID
- tissue uptake dose at 1 h [12]: 0.13 ± 0.02 %ID
- tissue uptake dose at 4 h [12]: 0.11 ± 0.02 %ID
- tissue uptake dose at 24 h [12]: 0.09 ± 0.05 %ID
- tissue uptake dose at 48 h [12]: 0.03 ± 0.02 %ID
- SUV at 5 min [13]: 0.28 ± 0.06 SUV
- SUV at 1 h [14]: 0.19 ± 0.07 SUV
- SUV at 4 h [13]: 0.15 SUV
- SUV at 24 h [14]: 0.19 ± 0.09 SUV
- SUV at 48 h [13]: 0.34 ± 0.08 SUV
- SUV at 1 h [15]: 0.25 ± 0.05 SUV
- SUV at 4 h [15]: 0.17 ± 0.05 SUV
- SUV at 24 h [15]: 0.22 ± 0.01 SUV
- SUV at 48 h [15]: 0.17 ± 0.08 SUV
- SUV at 4 h [16]: 0.51 ± 0.02 SUV
- SUV at 24 h (whole blood, iv, 0.3 MBq, rat, i.v., n=8, read-out: Blood SUV): 0.71 ± 0.16 SUV
- SUV at 48 h [16]: 0.38 ± 0.02 SUV
- SUV at 1 h (whole blood, sc, 0.3 MBq, rat, s.c., n=4, read-out: Blood SUV): 0.65 ± 0.11 SUV
- tissue uptake dose (iv, 0.3 MBq, rat, i.v., 8 animals): 48 ± 3 %ID
- tissue uptake dose (sc, 0.3 MBq, rat, s.c., 4 animals): 45 ± 3 %ID
- brain uptake (rat): negligible
- AUC Kidney (rat, i.v., n=8): 1417 ± 102 SUV x h
- AUC Liver (rat, i.v., n=8): 92,7 ± 11,0 SUV x h
- t1/2 Blood (rat, i.v., n=8): 49,5 h
- t1/2 Kidney (rat, i.v., n=8): 14,7 h
- t1/2 Liver (rat, i.v., n=8): 39,5 h
- Cmax Kidney (rat, i.v., n=8): 74,8 ± 12,8 SUV
- Cmax Liver (rat, i.v., n=8): 2,50 ± 0,57 SUV
- Peak time Blood (rat, i.v., n=8): 1 h
- Peak time Kidney (rat, i.v., n=8): 1 h
- Peak time Liver (rat, i.v., n=8): 24 h
- AUC Kidney (rat, s.c., n=4): 1285 ± 57 SUV x h
- AUC Liver (rat, s.c., n=4): 87,8 ± 9,5 SUV x h
- t1/2 Blood (rat, s.c., n=4): 46,4 h
- t1/2 Kidney (rat, s.c., n=4): 18,9 h
- t1/2 Liver (rat, s.c., n=4): 35,9 h
- Cmax Blood (rat, s.c., n=4): 0,65 ± 0,11 SUV
- Cmax Kidney (rat, s.c., n=4): 70,2 ± 4,1 SUV
- Cmax Liver (rat, s.c., n=4): 2,23 ± 0,32 SUV
- Peak time Blood (rat, s.c., n=4): 1 h
- Peak time Kidney (rat, s.c., n=4): 4 h
- Peak time Liver (rat, s.c., n=4): 24 h
- biological half-life of the total activity in the rat body (s.c.): 42.0 h
